Data published in the supplement of paper PMC7877785.
± gives the uncertainty stated by the source.

Assay: self-splicing fitness, log relative to wild type (ln ratio); higher = more splicing; Tetrahymena group I intron in knt gene, E. coli kanamycin selection, DiMSum; sequences stand for … in CUCUCU…GGAGGGAAAAGUUAUCAGGCAUGCACCUGGUAGCUAGUCUUUAAACCAAUAGAUUGCAUCGGUUUAAAAGGCAAGACCGUCAAAUUGCGGGAAAGGGGUCAACAGCCGUUCAGUACCAAGUCUCAGGGGAAACUUUGAGAUGGCCUUGCAAAGGGUAUGGUAAUAAGCUGACGGACAUGGUCCUAACCACGCAGCCAAGUCCUAAGUCAACAGAUCUUCUGUUGAUAUGGAUGCAGUUCACAGACUAAAUGUCGGUCGGGGAAGAUGUAUUCUUCUCAUAAGAUAUAGUCGGACCUCUCCUUAAUGGGAGCUAGCGGAUGAAGUGAUGCAACACUGGAGCCGCUGGGAACUAAUUUGUAUGCGAAAGUAUAUUGAUUAGUUUUGGAGUACUCGUGGUCG
In short: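 DiMSum derived fitness as the error-weighted combination of fold changes across replicates, kanamycin versus no kanamycin, normalised to wild type. E. coli BL21(DE3) held the library, which randomised all eight P1ex-region intron nucleotides within the knt kanamycin-resistance gene on pET-22b(+). Six replicate transformations grew overnight at 37°C or 30°C on LB agar with or without 25 μg/mL kanamycin, also containing 100 μg/mL carbenicillin, 50 μM IPTG and 0.2% rhamnose, and pooled colonies were amplicon-sequenced on an Illumina HiSeq 2500.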

Sequence	self-splicing fitness (ln) (30 °C)	self-splicing fitness (ln) (37 °C)
AGUUAGCAAUAUUACGAUAA	-2.31 ± 0.21	-0.658 ± 0.22
AGUUAGCAAUAUUACGCACU	-1.6 ± 0.26	-1.09 ± 0.23
AGUUAGCAAUAUUACGCAUG	-1.91 ± 0.078	-1.15 ± 0.1
AGUUAGCAAUAUUACGCGUG	-2.38 ± 0.2	-0.946 ± 0.17
AGUUAGCAAUAUUACGCUGG	-3.07 ± 0.22	
AGUUAGCAAUAUUACGGACC	-0.357 ± 0.11	-0.279 ± 0.16
AGUUAGCAAUAUUACGGAGU	-3.29 ± 0.3	-1.3 ± 0.2
AGUUAGCAAUAUUACGGAUC	-1.01 ± 0.13	-1.09 ± 0.18
AGUUAGCAAUAUUACGGCAC	-1.47 ± 0.16	-1.82 ± 0.25
AGUUAGCAAUAUUACGGCCA	-0.965 ± 0.16	0.403 ± 0.29
AGUUAGCAAUAUUACGGCCU	-0.544 ± 0.11	0.22 ± 0.13
AGUUAGCAAUAUUACGGUAU	-2.69 ± 0.13	-1.34 ± 0.13
AGUUAGCAAUAUUACGGUCC	-0.223 ± 0.14	-0.259 ± 0.19
AUAAAGCAAUAUUACGAAAA	-1.4 ± 0.091	-0.609 ± 0.11
AUAAAGCAAUAUUACGAGGG	-3.4 ± 0.15	-1.64 ± 0.12
AUAAAGCAAUAUUACGAUCG	-0.0352 ± 0.072	0.19 ± 0.097
AUAAAGCAAUAUUACGCUAA	-0.787 ± 0.11	-0.736 ± 0.14
AUAAAGCAAUAUUACGCUAU	-1.28 ± 0.089	-0.692 ± 0.098
AUAAAGCAAUAUUACGCUCA	0.119 ± 0.11	-0.112 ± 0.12
AUAAAGCAAUAUUACGGACU	-0.0332 ± 0.073	0.654 ± 0.092
AUAAAGCAAUAUUACGGAGA	-3.18 ± 0.19	-1.86 ± 0.19

Sequence	self-splicing fitness (ln) (30 °C)	self-splicing fitness (ln) (37 °C)
AUAAAGCAAUAUUACGGGUA	-0.752 ± 0.082	-1.06 ± 0.1
AUAAAGCAAUAUUACGGUCA	0.0241 ± 0.071	0.459 ± 0.1
AUAAAGCAAUAUUACGUAGU	-1.9 ± 0.12	-0.946 ± 0.17
AUAAAGCAAUAUUACGUAUG	-2.13 ± 0.097	-1.34 ± 0.12
AUAAAGCAAUAUUACGUCAC	-3.46 ± 0.14	-3.09 ± 0.2
AUAAAGCAAUAUUACGUCCU	0.13 ± 0.054	0.82 ± 0.079
AUACAGCAAUAUUACGAGCU	-1.51 ± 0.1	-1.26 ± 0.11
AUACAGCAAUAUUACGAUCA	-0.716 ± 0.086	-0.37 ± 0.093
AUACAGCAAUAUUACGAUGG	-3.04 ± 0.18	-2.35 ± 0.23
AUACAGCAAUAUUACGAUUG	-3.14 ± 0.14	-2.59 ± 0.2
AUACAGCAAUAUUACGCAAU	-1.93 ± 0.15	-1.02 ± 0.16
AUACAGCAAUAUUACGCACU	-0.66 ± 0.11	0.0538 ± 0.14
AUACAGCAAUAUUACGCAUU	-1.85 ± 0.088	-1.4 ± 0.11
AUACAGCAAUAUUACGCGAA	-1.42 ± 0.12	-0.301 ± 0.12
AUACAGCAAUAUUACGCUGA	-2.14 ± 0.099	-0.86 ± 0.1
AUACAGCAAUAUUACGGCAC	-1.18 ± 0.087	-0.127 ± 0.12
AUACAGCAAUAUUACGGUGG	-2.95 ± 0.11	-2.92 ± 0.15
AUACAGCAAUAUUACGUACC	-0.828 ± 0.11	-0.283 ± 0.15
AUACAGCAAUAUUACGUAGC	-3.19 ± 0.21	-2.45 ± 0.23
AUACAGCAAUAUUACGUCAC	-3.13 ± 0.16	-2.1 ± 0.17
AUACAGCAAUAUUACGUCUA	-0.606 ± 0.078	-0.238 ± 0.079
